Tested on: MS2 coat protein
Assay: apparent KD of MS2 coat protein; designed switch direction (-1 OFF switch, 1 ON switch): -1; higher = weaker reporter binding
How it was run: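 Designed RNA switches sharing common flanks were transcribed on Illumina chips by stalled E. coli RNA polymerase. They were titrated with SNAP-549-labelled MS2 coat protein, from 0.7 or 1.5 nM doubling to 3 µM, in Tris-HCl pH 7.5 buffer with KCl, MgCl2, BSA, DTT, tRNA and Tween-20. Titrations ran without input, with 200 uM small-molecule ligand, or with an oligonucleotide input. The apparent KD of each design is the median over its clusters, after curve-fitting of normalised cluster fluorescence.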

[1] = Eterna round: R95, input ligand: FMN 200 uM
[2] = Eterna round: R95, input ligand: microRNA oligo, concentration not stated
[3] = Eterna round: R95, input ligand: none
[4] = input ligand: microRNA oligo, concentration not stated

| Sequence | apparent KD of MS2 coat protein (input ligand: FMN 200 uM) [µM] | apparent KD of MS2 coat protein (input ligand: none) [µM] | apparent KD of MS2 coat protein [1] [µM] | apparent KD of MS2 coat protein [2] [µM] | apparent KD of MS2 coat protein [3] [µM] | apparent KD of MS2 coat protein [4] [µM] |
| --- | --- | --- | --- | --- | --- | --- |
| AUUCAACAUGAGGAUCACCCAUGUGAGGAUAUGCGAGUAUAGACUUCGGUCUGAUAGAGCAGAAGGCGCAGAUA [EX1 #6] (Eterna round: R97, puzzle: Exclusion 1) | 0.0487 | 0.0328 |  |  |  |  |
| CAUGAUCUUCGGAUCAUGUACAUGAGGAUCACCCAUGUUACGAGUUGAUCCUCAUACAAGCUUUUUGCUCGUCUUAU [Sensor v3 - Turn-off variant 1 - 26] (puzzle: Sensor v3, turn-off variant 1) |  |  | 0.0222 | 0.0148 | 0.0208 |  |
| GGAAGGAGUGUCAGGAUAUCCGGAGGGAAACCUCCGGAGAAGGGACAUGAGGAUCACCCAUGUAGAGGAAGGAG [AK-MS2ROC-r4-Bmoexclusion4-9] (Eterna round: R97, puzzle: Brourd's mod of Exclusion 4) | 0.561 | 0.441 |  |  |  |  |
| CGAUAAAAGACAGGAUAUGAGGAGAGAGAGAGAUCAGAAGGGUCACAUGAGGAUCACCCAUGUGAGUUCUCGAUAAGAAACACC [Prohibition 53 - Jieux - Exclusion NG 1] (Eterna round: R96, puzzle: Exclusion NG 1) | 0.0138 | 0.0193 |  |  |  | 0.0145 |
| UAUUCACAAGCGAGAUCCCACAUGAGGAUCACCCAUGUGCUCGUCUUAUAAGGUACUGUGACGAAAGUCACGGUACC [Sensor 3, v1 - 91 v25] (Eterna round: R97, puzzle: Sensor, turn-off variant 1) | 0.0199 | 0.02 |  |  |  |  |
| GUACUGAGGCUUUGCUUUAAUCGUACAUGAGGAUCACCCAUGUAGGAUAUGGUAGGCUUUGCUUACCAGAAGGACAGAGUGAUC [JL EXNG3 1.23] (Eterna round: R96, puzzle: Exclusion NG 3) | 0.148 | 0.162 |  |  |  | 0.121 |
| GGGAAACAUGAGGAUCACCCAUGUCAGGAUAUCCGCUUUAAUUAAAUAAAUAAAUAAUGGAGAAGGGACAGCCC [-12.9, -10.5 kcal, 39% A] (Eterna round: R97, puzzle: Exclusion 1) | 0.0336 | 0.0337 |  |  |  |  |
| GCACGAUAUCAGGAUAUGACUAGCUUCGGCUAGUCAGAAGGGAUGACAUGAGGAUCACCCAUGUGAUCACGUGC [E6/1-B1] (Eterna round: R97, puzzle: Exclusion 6) | 0.0796 | 0.0605 |  |  |  |  |
| UAAUAACAAGCAGGAUCCUACAUGAGGAUCACCCAUGUGCUCGUCUUAUAAAGUACUAUCACGAAAGUGAUAGUACA [Mat - Sensor v3 - turn-off var 1 - Eli Mod - D70] (puzzle: Sensor v3, turn-off variant 1) |  |  | 0.272 | 0.148 | 0.315 |  |
| AUAAUAAAACAUGAGGAUCACCCAUGUGGGUCGUUCUACUGGCAGGAUAUCGCCAGACAAUAAAACGAGAAGGGCCAGUUAAUA [Leanerrean] (Eterna round: R96, puzzle: Exclusion NG 3) | 0.168 | 0.086 |  |  |  | 0.0926 |
| AAACGGUAAGGAUAUCGGGCAACGGACAUGAGGAUCACCCAUGUGAACCUGCGUAUCCUCCGAGAAGGUACAAAAG [Diinbibe] (Eterna round: R97, puzzle: Exclusion 5) | 0.02 | 0.0109 |  |  |  |  |
| UAGGCUUUAGGAUAUGCGUGUUGUAGUCGGCGAUGUGGUUCACAUGAGGAUCACCCAUGUAGAAGGAAAGUUUA [-17.2, -17 kcal, 26% A] (Eterna round: R97, puzzle: Exclusion 2) | 0.244 | 0.104 |  |  |  |  |
| CACCGUUACUGAGGAUAUCUUACAUGAGGAUCACCCAUGUAAUAAAUGAGAAUUUCGGAUGUAUUAGAGAAGGCAGAAAUCGGC [Ostricism 61 - Jieux - Exclusion NG 2] (Eterna round: R96, puzzle: Exclusion NG 2) | 0.0226 | 0.0239 |  |  |  | 0.0163 |
| CUUCAGUAAGGAUAUCAGCUUAGGAGGUUGGUAAUGAGAGCUGAGAAGGUACAUGAGGAUCACCCAUGUUAGUU [JL Zatite mod 8] (puzzle: Exclusion 4) |  |  |  | 0.017 |  |  |
| CCAAGCUUAUUCAUUAACCACAUGAGGAUCACCCAUGUAUAGGCAAUUAUGACUGGGCUCUGUGGUGCUCGUCUUCU [mod-malcom] (Eterna round: R97, puzzle: Sensor, turn-off variant 1) | 0.0597 | 0.0603 |  |  |  |  |
| AAAUGAUGUCAGGAUAUUGACGUUAAAAGAACGCAAGAAGGGACAACAUGAGGAUCACCCAUGUGGUCCUAUAA [Bira] (puzzle: Exclusion 6) |  |  |  | 0.013 |  |  |
| UUGUACAUAGGAUAUAGUUGUUUGUACAUGAGGAUCACCCAUGUUAUGUAUGUUUUGCUUCUAGAAGGAUGUUGUU [JR_E5_Sub004] (puzzle: Exclusion 5) |  |  |  | 0.028 |  |  |
| GAUUAUGCGAGCUUUAGGGACAUGAGGAUCACCCAUGUUCGUCUUGUUGAUCUAGGUACACUAACAUACCUAAAUCU [JMF 16] (puzzle: Sensor v3, turn-off variant 1) |  |  | 0.0199 | 0.0285 | 0.0219 |  |
| GAAAACGUAGGAUAUUAAUACUUAGACAUGAGGAUCACCCAUGUUUGGUGGGUCGGAGAAUGAGAAGGGCGAUGAA [EX5 #13] (Eterna round: R97, puzzle: Exclusion 5) | 0.107 | 0.153 |  |  |  |  |
| CCGCUGCAAGGAUAUACUUGCGGUGAUGUUCGAGUUCUUCUACUUGAGGAUCACCCAAGUAGAAGGUGCAAAAC [jl-ex2.4.58 ViennaUCT mod] (Eterna round: R97, puzzle: Exclusion 2) | 0.0192 | 0.0193 |  |  |  |  |
| UUAUGUGCGAGAGGAUAUCGUGUACAAAGUACACGAGAAGGCUUCACAUGAGGAUCACCCAUGUACCGAGGUGAAACACCUUGA [Omei Exc(NG)1 Bv7] (Eterna round: R96, puzzle: Exclusion NG 1) | 0.66 | 0.887 |  |  |  | 0.476 |
| GGAAAGCAAGGAUAUACAAGGAGAAGGAGGAAAGUAAAAGGACAUGAGGAUCACCCAUGUAGAAGGUGCGAGAG [JR_Exclu2_Sub039] (puzzle: Exclusion 2) |  |  | 0.0319 | 0.029 | 0.0435 |  |
| CUGCUGGAGCGGCGCUUUGGUCGUACAUGAGGAUCACCCAUGUAGGAUAUGGUAAAAUUUGCCUGCUAGAAGGAUAGAGUGGUC [salish99_ExNG3_r04_616] (Eterna round: R96, puzzle: Exclusion NG 3) | 0.124 | 0.0916 |  |  |  | 0.07 |
| AUAAGGUGAGGAUAUCCACGACCCUACAUGAGGAUCACCCAUGUAUACAGUACGUGUAGAGGAGAAGGUACAUGUC [Eternabot (L2) Solution 78] (Eterna round: R97, puzzle: Exclusion 5) | 0.0283 | 0.0293 |  |  |  |  |
| AUAAUACAUGUAGGAUAUGCGUGGCGAAGCUAUGCAGAAGGACAUGAGGAUCACCCAUGUGCUAGCGUCUGCGUACAGAUGCUA [JL eng1 1.35 mod 3] (Eterna round: R96, puzzle: Exclusion NG 1) | 0.31 | 0.0441 |  |  |  | 0.021 |

— the supplement of paper PMC9170038
